Results as given in patent WO2019131769A1 (dated 2019).
Positions count from the first letter of the chain named. Values belong to the binder of their own block, whether it stands above or below them. Ends that are not written are not given here.

Columns and labels:
[1] = target: T1, human PAD4 (Peptidylarginine deiminase 4) (human, UniProt Q9UM07 1-663); experiment: cell-based or functional assay
[2] = target: T1, human PAD4 (Peptidylarginine deiminase …); experiment: SPR (Biacore T200), antibody captured on rabbit anti-mouse polyclonal antibody on CM5 chip, human PAD4 as analyte
[3] = target: T2, BSA-modified peptide antigen FFTYHIRHGEVHC (SEQ ID NO: 1) (human, also: BSA carrier conjugate); experiment: ELISA, culture supernatant of CHO cells on immobilised BSA-modified peptide
T2 construct: also called peptide corresponding to positions 633-644 of PAD4
T2 peptide: FFTYHIRHGEVHC

T1 sequence (Q9UM07 whole entry): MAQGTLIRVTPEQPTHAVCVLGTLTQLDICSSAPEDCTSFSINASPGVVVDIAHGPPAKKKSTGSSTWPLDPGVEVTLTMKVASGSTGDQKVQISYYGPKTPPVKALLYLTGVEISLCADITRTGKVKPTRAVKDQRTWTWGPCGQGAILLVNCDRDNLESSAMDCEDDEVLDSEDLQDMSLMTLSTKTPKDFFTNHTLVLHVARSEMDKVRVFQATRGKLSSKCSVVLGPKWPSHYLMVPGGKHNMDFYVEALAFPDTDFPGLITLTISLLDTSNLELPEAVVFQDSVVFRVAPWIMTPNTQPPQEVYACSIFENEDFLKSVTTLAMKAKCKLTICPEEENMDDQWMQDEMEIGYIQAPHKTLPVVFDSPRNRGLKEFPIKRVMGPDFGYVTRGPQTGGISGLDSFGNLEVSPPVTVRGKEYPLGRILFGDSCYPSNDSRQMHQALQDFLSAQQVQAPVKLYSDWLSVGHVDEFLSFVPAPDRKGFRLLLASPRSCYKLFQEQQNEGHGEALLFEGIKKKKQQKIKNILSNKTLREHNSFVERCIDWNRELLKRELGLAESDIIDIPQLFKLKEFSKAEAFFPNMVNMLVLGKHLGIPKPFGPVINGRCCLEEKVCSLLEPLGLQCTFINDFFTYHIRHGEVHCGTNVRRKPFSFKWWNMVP

- inhibition rate of citrullinating activity of active PAD4 (BAEE substrate, colorimetric) [1]: 80%
- binding result [3]: binds
- Kd [2]: 24 nM
B2: P3 (antibody, V domains shown)
VH: AVTLDESGGGLQTPGGGLSLICKASGSTIRSYAMNWVRQAPGKGLEFVAGIDNSGRYTNYGAAVKGRATISRDNGQSTVRLQLNNLRAEDTGIYYCAKNVDVAGYGCDWSSGCIDTWGHGTEVIVS
VL: ASTQPASVSANPGETVKITCSGGSSTYYGWYQQKSPGSAPVTVIYENTNRPSDIPSRFSGSKSGSTATLTITGVQADDEAVYFCGGYDRTNYAGIFGAGTTLTVL
notes: Chicken variable regions recombined into mouse chimeric antibody (IgG1) expression vectors; also called anti-PAD4 antibody P3; P1 etc

- inhibition rate of citrullinating activity of active PAD4 (BAEE substrate, colorimetric) [1]: 82%
- Kd [2]: 15 nM
B4: P4 (antibody, V domains shown)
VH: B2 VH with S27F, T28S, I29M, S54T, N59G, A62S, I93T, Y105S, T116A, I124T
VL: B2 VL with A6S, E46Q, N49K, D53G, I54L, P55S, D77E, R89T, T90R, N91T
notes: Chicken variable regions recombined into mouse chimeric antibody (IgG1) expression vectors; also called anti-PAD4 antibody P4; P1 etc

The next lines start with the binder.

B1: P1 (antibody, V domains shown)
VH: B2 VH with S27F, T28H, I29M, T58R, V100F, A103G, Y105D, T116A
VL: B2 VL with A6S, E46Q, N49K, D53G, I54L, P55S, D77E, R89T, T90R, N91T
notes: Chicken variable regions recombined into mouse chimeric antibody (IgG1) expression vectors; also called anti-PAD4 antibody P1; P1 etc
- inhibition rate of citrullinating activity of active PAD4 (BAEE substrate, colorimetric) [1]: 63%
- Kd [2]: 73 nM

B3: P2 (antibody, V domains shown)
VH: B2 VH with G17A, I21V, S27F, T28H, I29M, T58R, V100F, A103G, Y105D, T116A
VL: B2 VL with E46Q, D77E, T90S
notes: Chicken variable regions recombined into mouse chimeric antibody (IgG1) expression vectors; also called anti-PAD4 antibody P2; P1 etc
- inhibition rate of citrullinating activity of active PAD4 (BAEE substrate, colorimetric) [1]: 62%
- binding result [3]: binds
- Kd [2]: 31 nM
